This experiment addresses IL-9R/h16445 cytoplasmic-domain receptor chimera (human). Put plainly: cell-based or functional assay.

A value given as a limit tells only on which side of the number the result lay.

The results in this text go back to patent publication US20020090680A1.

IL-9R/h16445 cytoplasmic-domain receptor chimera (human), sequence (Q9HBE5 254-538, change not shown): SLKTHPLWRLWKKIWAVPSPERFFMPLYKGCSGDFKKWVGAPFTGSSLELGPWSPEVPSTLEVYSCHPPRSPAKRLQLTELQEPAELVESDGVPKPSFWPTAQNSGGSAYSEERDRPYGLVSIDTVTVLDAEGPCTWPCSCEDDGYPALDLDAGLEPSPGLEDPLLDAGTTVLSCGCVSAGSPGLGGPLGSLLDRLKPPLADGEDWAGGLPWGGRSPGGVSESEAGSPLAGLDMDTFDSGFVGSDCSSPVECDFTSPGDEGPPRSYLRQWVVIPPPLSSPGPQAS

Substance IL-9 (ligand) had a CAT expression (HRRE-CAT reporter, HepG2 cells) of over 30 fold.
